This experiment deals with mouse serum albumin (mouse, UniProt P07724 25-608). Description: SPR.

B1: ABD-iTEP-pOVA (designed binder)
chain: LAEAKVLANRELDKYGVSDFYKRLINKAKTVEGVEALKLHILAALPGVGVPGGVGVPGGVGVPGGVGVPGGVGVPGGVGVPGGVGVPGGVGVPGGVGVPGGVGVPGGVGVPGGVGVPGGVGVPGGVGVPGGVGVPGGVGVPGGVGVPGGVGVPGGVGVPGGVGVPGGVGVPGGVGVPGGVGVPGGVGVPGGVGVPGGVGVPGGVGVPGGVGVPGGVGVPGGVGVPGGVGVPGGVGVPGGVGVPGGVGVPGGVGVPGGVLPGVGGVLPGVGGVLPGVGGVLPGVGGVLPGVGGVLPGVGGVLPGVGGVLPGVGGVLPGVGGVLPGVGGVLPGVGGVLPGVGGVLPGVGGVLPGVGGVLPGVGGVLPGVGGSIINFEKL
For B1, the Kd was found to be 1.4 ± 0.1 nM.

B2: ABD-iTEP (designed binder)
chain: LAEAKVLANRELDKYGVSDFYKRLINKAKTVEGVEALKLHILAALPGVGVPGGVGVPGGVGVPGGVGVPGGVGVPGGVGVPGGVGVPGGVGVPGGVGVPGGVGVPGGVGVPGGVGVPGGVGVPGGVGVPGGVGVPGGVGVPGGVGVPGGVGVPGGVGVPGGVGVPGGVGVPGGVGVPGGVGVPGGVGVPGGVGVPGGVGVPGGVGVPGGVGVPGGVGVPGGVGVPGGVGVPGGVGVPGGVGVPGGVGVPGGVGVPGGVLPGVGGVLPGVGGVLPGVGGVLPGVGGVLPGVGGVLPGVGGVLPGVGGVLPGVGGVLPGVGGVLPGVGGVLPGVGGVLPGVGGVLPGVGGVLPGVGGVLPGVGGVLPGVG
Regarding B2, binding was put at a Kd of 1.41 ± 0.04 nM, the koff stood at 0.00305 s⁻¹ and the kon turned out to be 2.17e+06 M⁻¹ s⁻¹.

The values above are taken from publication PMC5743471 (Theranostics, 2018).
